Source: PMC12102759

B1: NCOA2 peptide 1075-1090 (Nuclear receptor coactivator 2), 16-mer library wild type / NSP3 UBl1 (ORF1ab Nsp3a Ub1, residues 819-925) (parent)
chain 1: DEGALLDQLYLALRNF
chain 2: APTKVTFGDDTVIEVQGYKSVNITFELDERIDKVLNEKCSAYTVELGTEVNEFACVVADAVIKTLQPVSELLTPLGIDLDEWSMATYYLFDESGEFKLASHMYCSFY
B2: ICA1L peptide 451-466 (Islet cell autoantigen 1-like protein), 16-mer library wild type / NSP16 (ORF1ab Nsp16, residues 6799-7088) (parent)
chain 1: QDMSAWFNLFADLDPL
chain 2: SSQAWQPGVAMPNLYKMQRMLLEKCDLQNYGDSATLPKGIMMNVAKYTQLCQYLNTLTLAVPYNMRVIHFGAGSDKGVAPGTAVLRQWLPTGTLLVDSDLNDFVSDADSTLIGDCATVHTANKWDLIISDMYDPKTKNVTKENDSKEGFFTYICGFIQQKLALGGSVAIKITEHSWNADLYKLMGHFAWWTAFVTNVNASSSEAFLIGCNYLGKPREQIDGYVMHANYIFWRNTNPIQLSSYSLFDMSKFPLKLRGTAVMSLKEGQINDMILSLLSKGRLIIRENNRVVI
B3: TET3 peptide 460-475 (Methylcytosine dioxygenase TET3), 16-mer library wild type / NSP3 SUD-M (ORF1ab Nsp3c SUD-M, residues 1356-1493) (parent)
chain 1: MAELEQLLGSASDYIQ
chain 2: LPSIISNEKQEILGTVSWNLREMLAHAEETRKLMPVCVETKAIVSTIQRKYKGIKIQEGVVDYGARFYFYTSKTTVASLINTLNDLNETLVTMPLGYVTHGLNLEEAARYMRSLKVPATVSVSSPDAVTAYNGYLTSS
B4: NEK9 peptide 738-753 (Serine/threonine-protein kinase Nek9), 16-mer library wild type / NSP9 (ORF1ab Nsp9, residues 4141-4253) (parent)
chain 1: SGLSIGTVFQSSSPGG
chain 2: NNELSPVALRQMSCAAGTTQTACTDDNALAYYNTTKGGRFVLALLSDLQDLKWARFPKSDGTGTIYTELEPPCRFVTDTPKGPKVKYLYFIKGLNNLNRGMVLGSLAATVRLQ

Variants of: B1
Settings: with NSP3 UBl1 (ORF1ab Nsp3a Ub1, residues 819-925); bait immobilised on MaxiSorp plates (10 µg), library pre-cleared on GST, 2 h binding at 4 °C, five washes; one round per day, days 1-4; value from days 2 and 3; keep out of graded; scale: average fractional NGS count over selection days 2 and 3

| Variant | screen value |
| --- | --- |
| chain 1 L11F | 0 |
| chain 1 L11Q | 0 |
| chain 1 L11M | 0 |
| chain 1 G3N | 7.33e-06 |
| chain 1 G3R | 2.99e-05 |
| chain 1 A12W | 0 |
| chain 1 R14D | 0.000475 |
| chain 1 E2N | 0 |

Variants of: B2
Settings: with NSP16 (ORF1ab Nsp16, residues 6799-7088); bait immobilised on MaxiSorp plates (10 µg), library pre-cleared on GST, 2 h binding at 4 °C, five washes; one round per day, days 1-4; value from days 2 and 3; keep out of graded; scale: average fractional NGS count over selection days 2 and 3

| Variant | screen value |
| --- | --- |
| chain 1 F10H | 0 |
| chain 1 F10R | 0 |
| chain 1 D12P | 3.33e-05 |
| chain 1 D12G | 3.31e-05 |
| chain 1 D12N | 1.88e-05 |
| chain 1 D12Q | 5.82e-05 |
| chain 1 N8Q | 5.42e-05 |
| chain 1 N8D | 6.98e-05 |
| chain 1 N8S | 2.43e-05 |
| chain 1 D14F | 1.57e-05 |
| chain 1 D14S | 6.51e-05 |
| chain 1 D14H | 0 |
| chain 1 D14L | 6.11e-05 |
| chain 1 D14R | 8.06e-05 |
| chain 1 D14A | 3.47e-05 |
| chain 1 D14N | 6.07e-05 |
| chain 1 D14G | 1.57e-05 |
| chain 1 W6P | 0 |
| chain 1 W6V | 0 |
| chain 1 L9W | 7.05e-05 |
| chain 1 L9T | 3.99e-05 |
| chain 1 L9A | 0 |
| chain 1 L9I | 3.31e-05 |
| chain 1 M3A | 1.55e-05 |
| chain 1 A5S | 3.33e-05 |
| chain 1 A5G | 6.16e-05 |

| Variant | screen value |
| --- | --- |
| chain 1 A5L | 1.55e-05 |
| chain 1 A5H | 2.76e-05 |
| chain 1 S4A | 0 |
| chain 1 S4V | 0 |
| chain 1 S4D | 6.54e-05 |
| chain 1 S4M | 6.83e-05 |
| chain 1 D2E | 0 |
| chain 1 F7V | 5.76e-05 |
| chain 1 F7R | 0 |
| chain 1 F7M | 7.76e-05 |
| chain 1 F7S | 3.52e-05 |
| chain 1 L16A | 6.04e-05 |
| chain 1 L16N | 2.43e-05 |
| chain 1 L16D | 3.18e-05 |
| chain 1 L16S | 5.17e-05 |
| chain 1 L16F | 2.69e-05 |
| chain 1 P15A | 1.57e-05 |
| chain 1 P15E | 0 |
| chain 1 P15Y | 5.19e-05 |
| chain 1 P15F | 0 |
| chain 1 P15W | 2.45e-05 |
| chain 1 P15L | 3.43e-05 |
| chain 1 A11S | 2.43e-05 |
| chain 1 A11F | 1.35e-05 |
| chain 1 A11D | 0 |
| chain 1 A11W | 0 |

Variants of: B3
Settings: with NSP3 SUD-M (ORF1ab Nsp3c SUD-M, residues 1356-1493); bait immobilised on MaxiSorp plates (10 µg), library pre-cleared on GST, 2 h binding at 4 °C, five washes; one round per day, days 1-4; value from days 2 and 3; keep out of graded; scale: average fractional NGS count over selection days 2 and 3

| Variant | screen value |
| --- | --- |
| chain 1 A2R | 0 |
| chain 1 A2W | 0 |
| chain 1 A2T | 0 |
| chain 1 A2H | 3.41e-05 |
| chain 1 M1G | 0 |
| chain 1 M1R | 0 |
| chain 1 M1H | 0 |
| chain 1 M1K | 0 |
| chain 1 M1T | 0 |
| chain 1 Q6K | 0 |
| chain 1 Q6G | 0 |
| chain 1 Q6Y | 0 |
| chain 1 Q6S | 0 |
| chain 1 Q6P | 0 |
| chain 1 S10G | 0 |
| chain 1 E5K | 0 |
| chain 1 E5D | 0.000325 |
| chain 1 E5W | 0 |
| chain 1 D13I | 0 |
| chain 1 D13S | 0 |
| chain 1 D13N | 0 |
| chain 1 D13F | 0 |
| chain 1 D13G | 0 |
| chain 1 L4Y | 0 |

| Variant | screen value |
| --- | --- |
| chain 1 L4G | 0 |
| chain 1 L4M | 0 |
| chain 1 L4R | 0 |
| chain 1 S12P | 0 |
| chain 1 A11N | 0 |
| chain 1 A11W | 0 |
| chain 1 E3N | 0 |
| chain 1 E3T | 0.000884 |
| chain 1 E3W | 6.52e-05 |
| chain 1 E3Q | 0 |
| chain 1 E3M | 0 |
| chain 1 Y14F | 0 |
| chain 1 Y14T | 0 |
| chain 1 I15M | 0 |
| chain 1 I15G | 0 |
| chain 1 I15R | 0 |
| chain 1 L8E | 0 |
| chain 1 L8I | 0 |
| chain 1 L8W | 0 |
| chain 1 L8S | 0 |
| chain 1 L7N | 0 |
| chain 1 L7T | 0 |
| chain 1 L7Q | 0 |
| chain 1 L7P | 0 |

Variants of: B4
Settings: with NSP9 (ORF1ab Nsp9, residues 4141-4253); bait immobilised on MaxiSorp plates (10 µg), library pre-cleared on GST, 2 h binding at 4 °C, five washes; one round per day, days 1-4; value from days 2 and 3; keep out of graded; scale: average fractional NGS count over selection days 2 and 3

| Variant | screen value |
| --- | --- |
| chain 1 I5E | 0 |
| chain 1 G2V | 0 |
| chain 1 G2L | 0 |
| chain 1 G2I | 0 |
| chain 1 S12E | 0 |
| chain 1 S12I | 0 |
| chain 1 S12D | 0 |
| chain 1 F9V | 0.000209 |
| chain 1 F9N | 9.97e-05 |
| chain 1 F9K | 0 |
| chain 1 F9E | 0.000224 |
| chain 1 F9T | 0 |
| chain 1 G15Q | 4.92e-05 |
| chain 1 G15V | 0.000116 |
| chain 1 G15D | 0 |
| chain 1 G15E | 0 |
| chain 1 G15W | 0 |
| chain 1 G15S | 0 |
| chain 1 G15A | 0 |
| chain 1 L3W | 0 |

| Variant | screen value |
| --- | --- |
| chain 1 L3V | 0.000196 |
| chain 1 P14R | 0 |
| chain 1 P14E | 2.37e-05 |
| chain 1 P14T | 0 |
| chain 1 T7S | 0 |
| chain 1 T7D | 0 |
| chain 1 T7P | 0.000499 |
| chain 1 T7Q | 0 |
| chain 1 T7E | 0.000776 |
| chain 1 Q10I | 0 |
| chain 1 Q10E | 0.000217 |
| chain 1 S4D | 0 |
| chain 1 S4K | 0 |
| chain 1 S4Y | 0 |
| chain 1 S4W | 0 |
| chain 1 S4P | 0 |
| chain 1 S1Y | 0 |
| chain 1 S1E | 2.09e-05 |
| chain 1 S1M | 1.76e-05 |
| chain 1 S1N | 0.000364 |

| Variant | screen value |
| --- | --- |
| chain 1 S1D | 0.000541 |
| chain 1 S1H | 0 |
| chain 1 S1L | 0 |
| chain 1 S11N | 0 |
| chain 1 S11A | 0 |
| chain 1 S11D | 2.69e-05 |
| chain 1 S11T | 0 |
| chain 1 V8K | 0 |
| chain 1 V8Q | 0.000101 |
| chain 1 V8D | 0.000118 |
| chain 1 V8H | 0.000119 |
| chain 1 V8P | 0 |
| chain 1 V8E | 2.09e-05 |
| chain 1 V8A | 3.17e-05 |
| chain 1 V8G | 0 |
| chain 1 S13V | 0 |
| chain 1 S13G | 0 |
| chain 1 S13Q | 0 |
| chain 1 S13N | 2.85e-05 |
